Measured values taken from patent US20260085127A1 (BRIGHTPATH BIOTHERAPEUTICS, published 2026).
Numbering of substitutions follows the chain as printed. Names may count otherwise. Read-outs that look alike come from different tables or passages of the source.

How the values were obtained:
[1] = molecular target: T1, biotinylated human TIM-3-Fc antigen (in-house product, SEQ ID No: 118) (human, biotinylated); test: competition ELISA: human Galectin-9 coated, biotinylated human TIM-3-Fc pre-mixed with the antibody dilution series, Streptavidin-HRP, A450; blocked ligand: human Galectin-9
[2] = molecular target: T1, biotinylated human TIM-3-Fc antigen …; test: flow cytometry, inhibition of biotinylated TIM-3-Fc binding to phosphatidylserine on apoptotic Jurkat cells
[3] = molecular target: T1, biotinylated human TIM-3-Fc antigen …; test: competition ELISA: human Galectin-9 coated, biotinylated human TIM-3-Fc pre-mixed with the antibody dilution series, Streptavidin-HRP, A450; blocked ligand: human Galectin-9; remark: listed apart in the source
[4] = molecular target: T2, human CD39 (Accession No. NM_001776.6) expressed on cells (human, UniProt P49961 1-510); test: flow cytometry, 293T/CD39 cells, KD from MFI
T2 construct: whole, on cells; On Jurkat, 293T or SK-MEL28 cells; also called Jurkat/CD39; 293T/CD39
T2 sequence (looked up): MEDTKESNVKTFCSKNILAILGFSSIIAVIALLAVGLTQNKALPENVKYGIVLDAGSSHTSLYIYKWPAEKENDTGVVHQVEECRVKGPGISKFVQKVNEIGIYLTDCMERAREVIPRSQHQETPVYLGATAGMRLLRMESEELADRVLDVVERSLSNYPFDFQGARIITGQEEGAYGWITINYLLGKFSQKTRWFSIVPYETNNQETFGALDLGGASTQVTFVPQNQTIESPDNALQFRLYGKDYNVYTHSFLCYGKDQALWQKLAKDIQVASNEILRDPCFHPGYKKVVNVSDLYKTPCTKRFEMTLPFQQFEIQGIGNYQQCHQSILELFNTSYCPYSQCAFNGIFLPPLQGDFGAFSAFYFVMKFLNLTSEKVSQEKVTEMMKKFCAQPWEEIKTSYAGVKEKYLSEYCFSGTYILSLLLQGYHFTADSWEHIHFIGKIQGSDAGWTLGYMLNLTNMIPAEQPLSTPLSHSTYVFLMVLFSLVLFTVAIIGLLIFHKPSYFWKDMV

[5] = molecular target: T1, biotinylated human TIM-3-Fc antigen …; test: flow cytometry, inhibition of biotinylated TIM-3-Fc binding to phosphatidylserine on apoptotic Jurkat cells; remark: listed apart in the source
[6] = molecular target: T3, recombinant human CD39 (in-house product, 38 to 478 aa of Accession No. NM_001776.6) (human, UniProt P49961 38-478); test: SPR Biacore8K, antibody captured on anti-human IgG, antigen as analyte
T3 construct: also called rhCD39; human CD39-ECD; not shown: Myc and His tags at the C-terminus are named only for the PE-lab
T3 sequence (looked up): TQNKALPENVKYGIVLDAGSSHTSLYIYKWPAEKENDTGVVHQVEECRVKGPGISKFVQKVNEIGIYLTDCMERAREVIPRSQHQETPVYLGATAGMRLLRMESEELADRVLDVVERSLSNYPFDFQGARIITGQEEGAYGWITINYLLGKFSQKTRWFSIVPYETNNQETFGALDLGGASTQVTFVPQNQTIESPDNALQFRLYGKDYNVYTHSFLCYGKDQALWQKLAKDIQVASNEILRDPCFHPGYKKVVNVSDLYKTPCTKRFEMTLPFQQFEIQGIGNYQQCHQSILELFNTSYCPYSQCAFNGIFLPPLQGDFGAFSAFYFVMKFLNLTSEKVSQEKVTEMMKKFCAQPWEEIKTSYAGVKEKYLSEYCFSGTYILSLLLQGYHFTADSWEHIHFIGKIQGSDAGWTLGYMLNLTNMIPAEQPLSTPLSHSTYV

[7] = molecular target: T2, human CD39 (Accession No. NM_001776.6) …; test: flow cytometry on a mix of Jurkat, Jurkat/TIM-3, Jurkat/CD39 and Jurkat/TIM-3+CD39 cells in one well, antibody at 0.1 nM, BV421-anti-hIgG, MFI of BV421 per cell group
[8] = molecular target: T4, human TIM-3 (Accession No. JX049979.1) stably expressed on cells (human, UniProt Q8TDQ0 22-301); test: flow cytometry, Jurkat/TIM-3 + CD39 cells, KD from MFI
T4 construct: whole, on cells; On Jurkat or 293T cells; also called Jurkat/TIM-3; 293T/TIM-3

[9] = molecular target: T4, human TIM-3 (Accession No. JX049979.1) …; test: flow cytometry, Jurkat/TIM-3 cells, KD from MFI
[10] = molecular target: T3, recombinant human CD39 (in-house …); test: SPR Biacore8K, antibody captured on anti-human IgG, antigen as analyte; remark: listed apart in the source
[11] = molecular target: T2, human CD39 (Accession No. NM_001776.6) …; test: flow cytometry, 293T/CD39 cells, KD from MFI; remark: listed apart in the source
[12] = molecular target: T2, human CD39 (Accession No. NM_001776.6) …; test: flow cytometry, Jurkat/TIM-3 + CD39 cells, KD from MFI
[13] = molecular target: T2, human CD39 (Accession No. NM_001776.6) …; test: flow cytometry, 293T/TIM-3 + CD39 cells, KD from MFI
[14] = molecular target: T2, human CD39 (Accession No. NM_001776.6) …; test: flow cytometry, Jurkat/CD39 cells, KD from MFI
[15] = molecular target: T4, human TIM-3 (Accession No. JX049979.1) …; test: flow cytometry, 293T/TIM-3 cells, KD from MFI

B1: HuP4_11_Hu003_Ct (bispecific antibody)
chain 1: EVQLVESGGALVQPGRSLRLSCAVSGFTLSNYGVHWVRQAPGKGLEWVAVILRRGSTDYNAAFMSRFTISKDNSKNTVYLQMNSLRADDTAVVAGDYFDYWGQGTTVTVSSGGGGSGGGGSGGGGSGGGGSDIVMTQSQKFMSTSVGDRVSITCKASQNVGTNVAWYQQKPGQSPKLLIYSASYRYSGVPDRFTGSGSGTDFTLTISNMQSEDLADYFCQQYNSYPLTFGGGTKLEIK
chain 2: QVQLQESGGGLVKPGGSLKLSCAASGFTFSSYYMSWVRQTPDKRLEWVATISNSGGSTYYPDSVKDRFTISRDNAKNTLYLQMSSLKSEDTAMYYCARDPYYTNYVPMDYWGQGTMVTVSSGGGGSGGGGSGGGGSGGGGSDIVMTQSPSFLSASVGDRVTITCKASQYVDTYVAWYQQRPGKAPKPLIYSASTRHTGVPSRFSGSGSGTEFTLTISSLQPEDFATYFCAQYSSSPLTFGGGTKLELK
What does the source list for B1?
IC50 (read off the curve) [1]: ~3 nM; IC50 [2]: 30.7 nM

B2: 6-3hIG_Hu003_Fsc (bispecific antibody, not shown: a dimerising Fc or GST)
VH: QVQLVQSGAELVKPGASVKLSCKASGFSIKDTYVHWVKQAPGKGLEWIGKIDPANVNTKFDPKFQGRVTITADTSTNTAYLQLSSLRSEDTAVYYCALYGYDDDAYYFDYWGQGTLVTVSS
VL: EIVLTQSPASLSVSPGERATISCRASESVDNYGISFMNWFQQKPGQAPKLLIYAASNQGSGVPARFSGSGSGTDFTLTISSLEPEDFAVYYCQQSKEVPYTFGQGTKLEIK
scFv: B1 chain 2
Which results are given for B2?
IC50 (read off the curve) [3]: ~2 nM; Kd [4]: 17.6 nM; IC50 [5]: 15.5 nM; Kd [6]: 0.21 nM

B3: Hu072_11_sc (antibody)
scFv: QVQLQESGGGLVKPGGSLKLSCAASGFTFSSYYMSWVRQTPDKRLEWVATISNSGGSTYYPDSVKDRFTISRDNAKNTLYLQMSSLKSEDTAMYYCARDPYYTNYVPMDYWGQGTMVTVSSGGGGSGGGGSGGGGSGGGGSDIVMTQSPDSLAVSLGERVTLSCKASENVGTYVSWYQQKPRQPPKLLIYGASNRYTGVPDRFSGSGSGTDFTLTISSLQAEDVALYYCGQSYSYPLTFGQGTRLEIK
notes: scFv-Fc homodimer, anti-TIM-3; also called scFv-Fc homodimeric antibody of anti-TIM-3_ScFv antibody Hu072_11; not shown: GGGG linker and Fc-LALA (IgG1 Fc with L234A and L235A)
Does B3 bind [7]?
Result: no binding (tested: 0.1 nM)

And the Kd [8]?
Its Kd is 31.2 nM.

And the Kd [9]?
The Kd was 26.8 nM.

B4: T86_Hu003_Fsc (bispecific antibody, not shown: a dimerising Fc or GST)
VH: QIQLVQSGPELKKPGETVKISCEASGYTFINYGMNWVKQAPGKGLKWMGWINTYTGEPTYADDFKGRFAFSLETSANTAYLQINNLKNEDTATYFCARKGYYGYPNYYAMDYWGQGTSVTVSS
VL: DIVMTQSQKFMSTSVGDRVSITCKASQNVGTAVAWYQQKPGQSPKLLIYSASNRYTGVPDRFTGSGSGTDFTLTISNMQSEDLADYFCQQYSSYPITFGTGTKLEIK
scFv: B1 chain 2
notes: Fab-scFv-Fc heterodimer: anti-CD39 Fab T86 (Knob)
How did the Kd [4] turn out when B4 was run?
The Kd was 9.19 nM.

And the IC50 [5]?
The IC50 was 23.9 nM.

What about the Kd [6] of the same binder?
Its Kd is 2.4 nM.

B5: Tre291_Hu003_Fsc (bispecific antibody, not shown: a dimerising Fc or GST)
VH: QVQLKQSGPGLVQPSQSLSITCTVSGFSLTSYGVHWVRQSPGKGLEWLGVIWRRGSTDYNAAFMSRLSITKDTSKSQVFFKMNSLQTDDTAIYYCAGVRGDAMDYWGQGTSVTVSS
VL: DIVMTQSHKSMSTSVGDRVSVTCKASQNVGTNVAWYQQKPGQSPKALIYSASYRYSGVPDRFTGSGSGTDFTLTISNVQSEDLAEYFCQQYNSYPLTFGGGTKLEIK
scFv: B1 chain 2
notes: Fab-scFv-Fc heterodimer: anti-CD39 Fab Tre291 (Knob)
Which results are given for B5?
Kd [4]: 25.4 nM; IC50 [5]: 22.4 nM; Kd [6]: 1.36 nM

B6: mAnE67_Hu003_Fsc (bispecific antibody, not shown: a dimerising Fc or GST)
VH: EVQLVESGGGLVKPGGSRKLSCAASGFTFSDYGMHWVRQAPEKGLEWVAYISSGSSIIYYADTVKGRFTISRDNAKNTLFLQMTGLRSEDTAMYYCARKDYPYAMDYWGQGTSLAVSS
VL: SIVMTQTPKFMSTSVGDRVSVTCKASQNVGTNVAWYQQKPGQSPKALIYWASNRFTGVPDRFTGSGSGTDFTLTISNVQSEDLADYFCQQYSSSPYTFGSGTKLEIK
scFv: B1 chain 2
notes: Fab-scFv-Fc heterodimer: anti-CD39 mAnE67 arm (Knob)
Which results are given for B6?
Kd [4]: 3.94 nM; IC50 [5]: 19.8 nM; Kd [6]: 2.7 nM

B7: mAnE67_sc (antibody)
scFv: EVQLVESGGGLVKPGGSRKLSCAASGFTFSDYGMHWVRQAPEKGLEWVAYISSGSSIIYYADTVKGRFTISRDNAKNTLFLQMTGLRSEDTAMYYCARKDYPYAMDYWGQGTSLAVSSGGGGSGGGGSGGGGSGGGGSSIVMTQTPKFMSTSVGDRVSVTCKASQNVGTNVAWYQQKPGQSPKALIYWASNRFTGVPDRFTGSGSGTDFTLTISNVQSEDLADYFCQQYSSSPYTFGSGTKLEIK
notes: scFv-Fc homodimer, anti-CD39 (mouse variable regions); also called scFv-Fc homodimeric antibody of anti-CD39_scFv antibody mAnE67; not shown: linker and Fc-LALA (human IgG1 Fc with L234A and L235A)
What does the source list for B7?
Kd [10]: 4.75 nM; koff [10]: 0.00187 s⁻¹; kon [10]: 393000 M⁻¹ s⁻¹; Kd [11]: 2.19 nM; Kd [12]: 0.343 nM; Kd [13]: 5.5 nM; Kd [14]: 0.334 nM

B8: 6-3hIG_sc (antibody)
scFv: QVQLVQSGAELVKPGASVKLSCKASGFSIKDTYVHWVKQAPGKGLEWIGKIDPANVNTKFDPKFQGRVTITADTSTNTAYLQLSSLRSEDTAVYYCALYGYDDDAYYFDYWGQGTLVTVSSGGGGSGGGGSGGGGSGGGGSEIVLTQSPASLSVSPGERATISCRASESVDNYGISFMNWFQQKPGQAPKLLIYAASNQGSGVPARFSGSGSGTDFTLTISSLEPEDFAVYYCQQSKEVPYTFGQGTKLEIK
notes: scFv-Fc homodimer, anti-CD39; also called scFv-Fc homodimeric antibody of anti-CD39_scFv antibody (humanized) 6-3hIG; not shown: GGGG linker and Fc-LALA (human IgG1 Fc with L234A and L235A)
Which Kd [10] does the source give for B8 here?
Its Kd is 0.465 nM.

What about the koff [10] of the same binder?
Its koff is 0.000187 s⁻¹.

What about the kon [10] of the same binder?
The kon was 402000 M⁻¹ s⁻¹.

And the Kd [11]?
The Kd was 18.6 nM.

What about the Kd [12] of the same binder?
The Kd was 33.6 nM.

And the Kd [13]?
The Kd was 26.6 nM.

What about the Kd [14] of the same binder?
The Kd was 42.1 nM.

B9: I67_Hu003_Fsc (bispecific antibody, not shown: a dimerising Fc or GST)
VH: DVQLQESGPSLVQPSQSLSINCTVSGFSLSSYGVHWVRQSPGKGLEWLGVIWRRGSTDYNAAFMSRLSITKDNSKSQVFFKMNRLQADDTATYYCAKGISTATSWFAYWGQGTLVTVSA
VL: B5 VL with S10F, G100A, I106L
scFv: B1 chain 2
notes: Fab-scFv-Fc heterodimer: anti-CD39 Fab I67 (Knob)
B9 was tested. Which Kd [15] did it give?
Its Kd is 4.78 nM.

What about the IC50 [5] of the same binder?
The IC50 was 25.2 nM.
